According to the DeepSol protein solubility set:

Assay: soluble on expression in E. coli; label from the status in PepcDB or PDB records

| Sequence | soluble on expression in E. coli |
| --- | --- |
| MGSDKIHHHHHHMAEEIPVYLFTGFMDSGKTSLIKDTIFENDFANGSKGLIIMCEDGDVEYDMDKLKAANIQVAEIDSEDEFAAAKLNELNMQYLPEQVFIEYNGTWGIDKIIEAELPKGWVIVQSLATVDSTTFDLYMNNMRAMMQEQVFASDVVIFNRTDDDTDRGHLRRTIKNINRKAQIVYERKDGTIDERPEELPFDINQDVIELSDADYAIWYMDAMENYKKYDGKVVKFLALVYNPDKLRKGVMVPGRFAMTCCIEDVTFIGFKCKYEDESSIPHKSWITITARVHVEFAREYKGKGPVLYPVSIEPAEKPQDELVYFS | not soluble |
| NKYYKLGEIAQKVLVGGEKPADFSKEKNEVYKYPILSNNSKAEEFLVYSKTFRVEEKSITVSARGTIGAVFYRDFAYLPAVSLICFVPKEEFDIRFLFHALRAIKFKKQGSATGQLTVAQFKEYGIHVPSLKKQKEIAAILDPLYS | not soluble |
| MYPDHMFKYVIIGDGGVGKSNLLLRFTDELFDPIHTTTLGVEFGYKDLQIDKYKVRLRVWDTCGQENFRSIIRAYYRNALGALLVYDITCRKSFVHLEQWLSDLRQHGHPEMVIMLIGNKSDLKAVRDVTTEEGEAFAKKNGLTFMETSAKANKHVEKAFVNTAHEIYKKLKLGVIEDDDVKKKKIGIILRSRSGKEKKCC | soluble |
| MVKAQLQKLIEQVATEHDLPERVVERALKNAIITAIRKEKKIRDELEVEFTDEGIKVYVVRRKGNKKFKFPLDISPEDLNRLAAYAAKEEFYKELERAEQERGYLEFKELEGEIVYGIVRKVLENGDVIVDLGRIDAILPKREQLPTDNFKTGDKVKALLLEVRKRRGEPVLILSRTHPNFLRKLLEQEVPEIKEGLVEIKAVARIPGERAKVAVEAKEMKMDPVGIVVGLKGMRIQKVSEELGGEKIDVIRWSDDIAELIKRALAPAHPEKIKLFPYEKRAEVAVPEEELSLAIGKKGINVKLASKLTGWHIDVLSTKDFEKLEELRKKEDEGQTS | soluble |
| MPLHQVVEPAFYIVVVLDLVSGRLNGHDKDTLGLAQQLANRNSGGGAVVAIAFGELKDDSLNKAGVDRLIHINDEQYDQYNPEQRCNDLQGIIGELDPQHILLPDSINGGGDLGRRLAAALQQRPACGVWKLNDDTVVCR | not soluble |
| MNFIYPAVIAAVQEGEKAWGTTHPNPPVGAVVLSSNGSIVGRGHTQPPGGSHAEIMALRQAGENTKGGTLVVTLEPCNHWGRTGPCSHAISESGIEHVVYLMQDTGSLEKGGAEYLRRQGLKVTFLGLSVAALIPWQASKDRGWPYVVGKTAHTLDGFVAAEDHSSKWITGSASRDYANRQRRHFDAIIVGTGTVKADNPALTARKDDGTLLPHQPLKVVIGTSKISEGTQLARSGFVQFSTIEEALVQLWDRGVRYVLVEGGPHLLHGFLTSGNLDQLHSYSAPMLLTRGVSLLQEEEKKSAESANTTIASALRGSPQSISMLGDDILQVINI | not soluble |
| SAAAAFDPLGPLPVYLVSVRLGIYEDEHHRVWIVANVETSHSSHGNRRRTHVTVHLWKLIPQQVIPFNPLNYDFLPTTWKLESRNIYWATDGTHWRLLDHSQLGDTEQLILMLVLG | soluble |
| MGSSHHHHHHSSGLVPRGSHMASMTGGQQMGRGSMIIDDLLTKKIIKPRPLNSHKGTFGRVLLIGGNYPYGGAIIMAALACVNSGAGLVTVATHKDNITALHSHLPEAMAFDMVEKDRLSEQITAADVVLMGPGLAEDDLAQTTFDVVWQAIEPKQTLIIDGSAINLLAKRKPAIWPTKQIILTPHQKEWERLSGLTIPEQIEAATQTALAHFPKETILVAKSHQTKIYQGQKIGHIQVGGPYQATGGMGDTLAGMIAGFVAQFHTDRFEVAAAAVFLHSYIADQLSKEAYVVLPTRISAEITRVMKEMSE | soluble |
| RRSRKLERKKIVLGVTGSIAAVETVKLARELVRRGADVTAVMSRAARKIIHPYALEFATGKRVVTEITGSIEHVNLLGEYGDADLFLIAPCTANTISKIAQGIDDTPVTTFATTALGSGKPIIIVPAMHEAMMRNKAVLENIQRLIDMGIEFVQPRIEEGKAKFPSTETICLHVERELYPKEMKGKRVV | not soluble |
| MGELNKSARQIVEAVGGAENIAAATHCVTRLRFALIDESKVDQEMLDQIDVVKGSFSTNGQFQVVIGQGTVNKVYAELVKETGIGESTKDEVKKASEKNMNPLQRAVKTLADI | soluble |
